A word on the EC50 (read off the curve): it is the concentration giving half of the maximal effect.

Assay [1] deals with T1, soluble BCMA (UniProt Q02223 1-54, limits assumed).
T1 sequence (looked up): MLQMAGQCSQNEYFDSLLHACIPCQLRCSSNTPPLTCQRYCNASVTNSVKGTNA
The assay can be described thus: apparent affinity of anti-BCMA CAR to soluble BCMA (FIG. 10A); method not described.

Assay [2] deals with T1, soluble BCMA. The experiment in a line: titration, '% of Max Binding' against 'Log Conc (nM)'; apparent affinity of anti-BCMA CAR to soluble BCMA; the text does not describe the assay.

B1: anti-BCMA scFv1 (as CAR), Example 16 (scFv)
scFv: DIVLTQSPPSLAMSLGKRATISCRASESVTILGSHLIHWYQQKPGQPPTLLIQLASNVQTGVPARFSGSGSRTDFTLTIDPVEEDDVAVYYCLQSRTIPRTFGGGTKLEIKGSTSGSGKPGSGEGSTKGQIQLVQSGPELKKPGETVKISCKASGYTFTDYSINWVKRAPGKGLKWMGWINTETREPAYAYDFRGRFAFSLETSASTAYLQINNLKYEDTATYFCALDYSYAMDYWGQGTSVTVSS
B1: the Kd in the assay with soluble BCMA [1] came to 3.2 nM. The “EC50 (read off the curve)” value in the assay with soluble BCMA [2] is roughly 10 nM.

The record behind these values is US20260265394A1 (CARTESIAN THERAPEUTICS, published 2026).
